Experimental data from PMC11574045, “A cofactor-induced repressive type of transcription factor condensation can be induced by synthetic peptides to suppress tumorigenesis” (The EMBO Journal, 2024).

B1: SMAD7 (protein, UniProt O15105 1-426, looked up)
Mothers against …: MFRTKRSALVRRLWRSRAPGGEDEEEGAGGGGGGGELRGEGATDSRAHGAGGGGPGRAGCCLGKAVRGAKGHHHPHPPAAGAGAAGGAEADLKALTHSVLKKLKERQLELLLQAVESRGGTRTACLLLPGRLDCRLGPGAPAGAQPAQPPSSYSLPLLLCKVFRWPDLRHSSEVKRLCCCESYGKINPELVCCNPHHLSRLCELESPPPPYSRYPMDFLKPTADCPDAVPSSAETGGTNYLAPGGLSDSQLLLEPGDRSHWCVVAYWEEKTRVGRLYCVQEPSLDIFYDLPQGNGFCLGQLNSDNKSQLVQKVRSKIGCGIQLTREVDGVWVYNRSSYPIFIKSATLDNPDSRTLLVHKVFPGFSIKAFDYEKAYSLQRPNDHEFMQQPWTGFTVQISFVKGWGQCYTRQFISSCPCWLEVIFNSR
B2: SMAD3 (protein, UniProt P84022 2-425, looked up)
Mothers against …: SSILPFTPPIVKRLLGWKKGEQNGQEEKWCEKAVKSLVKKLKKTGQLDELEKAITTQNVNTKCITIPRSLDGRLQVSHRKGLPHVIYCRLWRWPDLHSHHELRAMELCEFAFNMKKDEVCVNPYHYQRVETPVLPPVLVPRHTEIPAEFPPLDDYSHSIPENTNFPAGIEPQSNIPETPPPGYLSEDGETSDHQMNHSMDAGSPNLSPNPMSPAHNNLDLQPVTYCEPAFWCSISYYELNQRVGETFHASQPSMTVDGFTDPSNSERFCLGLLSNVNRNAAVELTRRHIGRGVRLYYIGGEVFAECLSDSAIFVQSPNCNQRYGWHPATVCKIPPGCNLKIFNNQEFAALLAQSVNQGFEAVYQLTRMCTIRMSFVKGWGAEYRRQTVTSTPCWIELHLNGPLQWLDKVLTQMGSPSIRCSSVS
B3: SIX6 (protein, UniProt Q9QZ28 1-246, looked up)
Homeobox protein SIX6: MFQLPILNFSPQQVAGVCETLEESGDVERLGRFLWSLPVAPAACEALNKNESVLRARAIVAFHGGNYRELYHILENHKFTKESHAKLQALWLEAHYQEAEKLRGRPLGPVDKYRVRKKFPLPRTIWDGEQKTHCFKERTRHLLREWYLQDPYPNPSKKRELAQATGLTPTQVGNWFKNRRQRDRAAAAKNRLQQQVLSQGPGRVLRSEGEGTPEVLGVASSPAASLSSKAATSAISITSSDSECDI
B4: SIX3 (protein, UniProt O95343 1-332, looked up)
Homeobox protein SIX3: MVFRSPLDLYSSHFLLPNFADSHHRSILLASSGGGNGAGGGGGAGGGSGGGNGAGGGGAGGAGGGGGGGSRAPPEELSMFQLPTLNFSPEQVASVCETLEETGDIERLGRFLWSLPVAPGACEAINKHESILRARAVVAFHTGNFRDLYHILENHKFTKESHGKLQAMWLEAHYQEAEKLRGRPLGPVDKYRVRKKFPLPRTIWDGEQKTHCFKERTRSLLREWYLQDPYPNPSKKRELAQATGLTPTQVGNWFKNRRQRDRAAAAKNRLQHQAIGPSGMRSLAEPGCPTHGSAESPSTAASPTTSVSSLTERADTGTSILSVTSSDSECDV
B5: BCL11A (protein, UniProt Q9H165 1-835, looked up)
BCL11 transcription factor A: MSRRKQGKPQHLSKREFSPEPLEAILTDDEPDHGPLGAPEGDHDLLTCGQCQMNFPLGDILIFIEHKRKQCNGSLCLEKAVDKPPSPSPIEMKKASNPVEVGIQVTPEDDDCLSTSSRGICPKQEHIADKLLHWRGLSSPRSAHGALIPTPGMSAEYAPQGICKDEPSSYTCTTCKQPFTSAWFLLQHAQNTHGLRIYLESEHGSPLTPRVGIPSGLGAECPSQPPLHGIHIADNNPFNLLRIPGSVSREASGLAEGRFPPTPPLFSPPPRHHLDPHRIERLGAEEMALATHHPSAFDRVLRLNPMAMEPPAMDFSRRLRELAGNTSSPPLSPGRPSPMQRLLQPFQPGSKPPFLATPPLPPLQSAPPPSQPPVKSKSCEFCGKTFKFQSNLVVHRRSHTGEKPYKCNLCDHACTQASKLKRHMKTHMHKSSPMTVKSDDGLSTASSPEPGTSDLVGSASSALKSVVAKFKSENDPNLIPENGDEEEEEDDEEEEEEEEEEEEELTESERVDYGFGLSLEAARHHENSSRGAVVGVGDESRALPDVMQGMVLSSMQHFSEAFHQVLGEKHKRGHLAEAEGHRDTCDEDSVAGESDRIDDGTVNGRGCSPGESASGGLSKKLLLGSPSSLSPFSKRIKLEKEFDLPPAAMPNTENVYSQWLAGYAASRQLKDPFLSFGDSRQSPFASSSEHSSENGSLRFSTPPGELDGGISGRSGTGSGGSTPHISGPGPGRPSSKEGRRSDTCEYCGKVFKNCSNLTVHRRSHTGERPYKCELCNYACAQSSKLTRHMKTHGQVGKDVYKCEICKMPFSVYSTLEKHMKKWHSDRVLNNDIKTE
B6: SIX1 (protein, UniProt Q15475 1-284, looked up)
Homeobox protein SIX1: MSMLPSFGFTQEQVACVCEVLQQGGNLERLGRFLWSLPACDHLHKNESVLKAKAVVAFHRGNFRELYKILESHQFSPHNHPKLQQLWLKAHYVEAEKLRGRPLGAVGKYRVRRKFPLPRTIWDGEETSYCFKEKSRGVLREWYAHNPYPSPREKRELAEATGLTTTQVSNWFKNRRQRDRAAEAKERENTENNNSSSNKQNQLSPLEGGKPLMSSSEEEFSPPQSPDQNSVLLLQGNMGHARSSNYSLPGLTASQPSHGLQTHQHQLQDSLLGPLTSSLVDLGS
B7: SIX2 (protein, UniProt Q9NPC8 1-291, looked up)
Homeobox protein SIX2: MSMLPTFGFTQEQVACVCEVLQQGGNIERLGRFLWSLPACEHLHKNESVLKAKAVVAFHRGNFRELYKILESHQFSPHNHAKLQQLWLKAHYIEAEKLRGRPLGAVGKYRVRRKFPLPRSIWDGEETSYCFKEKSRSVLREWYAHNPYPSPREKRELAEATGLTTTQVSNWFKNRRQRDRAAEAKERENNENSNSNSHNPLNGSGKSVLGSSEDEKTPSGTPDHSSSSPALLLSPPPPGLPSLHSLGHPPGPSAVPVPVPGGGGADPLQHHHGLQDSILNPMSANLVDLGS
B8: SMAD4 (protein, UniProt Q13485 1-552, looked up)
Mothers against …: MDNMSITNTPTSNDACLSIVHSLMCHRQGGESETFAKRAIESLVKKLKEKKDELDSLITAITTNGAHPSKCVTIQRTLDGRLQVAGRKGFPHVIYARLWRWPDLHKNELKHVKYCQYAFDLKCDSVCVNPYHYERVVSPGIDLSGLTLQSNAPSSMMVKDEYVHDFEGQPSLSTEGHSIQTIQHPPSNRASTETYSTPALLAPSESNATSTANFPNIPVASTSQPASILGGSHSEGLLQIASGPQPGQQQNGFTGQPATYHHNSTTTWTGSRTAPYTPNLPHHQNGHLQHHPPMPPHPGHYWPVHNELAFQPPISNHPAPEYWCSIAYFEMDVQVGETFKVPSSCPIVTVDGYVDPSGGDRFCLGQLSNVHRTEAIERARLHIGKGVQLECKGEGDVWVRCLSDHAVFVQSYYLDREAGRAPGDAVHKIYPSAYIKVFDLRQCHRQMQQQAATAQAAAAAQAAAVAGNIPGPGSVGGIAPAISLSAAAGIGVDDLRRLCILRMSFVKGWGPDYPRQSIKETPCWIEIHLHRALQLLDEVLHTMPIADPQPLD

Test system: HEK293FT cells transfected with TF library
Test: Screening of TF condensates based on fluorescent puncta
Type: cell-based
Conditions: Figure 1B numerical data; TF library screen, one value per transcriptional factor
Method in brief: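 HEK293FT cells were reverse-transfected with Flag- or GAL4-tagged TF plasmids (1.6 μg/ml, PEI). After 60 h, cells were cultured 12 h with or without glucose, then fixed and immunostained with anti-Flag or anti-GAL4 and Alexa 488 secondaries. Fluorescent puncta were imaged over fifty random fields per well by high-content imaging.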

| Molecule | Z score of condensed fraction |
| --- | --- |
| B1 | -1.192 |
| B2 | -0.8472 |
| B3 | 1.297 |
| B4 | -0.646 |
| B5 | -0.5173 |
| B6 | -0.6669 |
| B7 | -0.1884 |
| B8 | -0.5517 |
